Six molecules from US20230212319A1, “NOVEL ANTIGEN BINDING DOMAINS AND SYNTHETIC ANTIGEN RECEPTORS INCORPORATING THE SAME” (University of Southern California, priority 2020, published 2023) can be followed below.

B1: 22200 (protein)
chain: MTIRLLCYMGFYFLGAGLMEADIYQTPRYLVIGTGKKITLECSQTMGHDKMYWYQQDPGMELHLIHYSYGVNSTEKGDLSSESTVSRIRTEHFPLTLESARPSHTSQYLCASSEARGLAEFTDTQYFGPGTRLTVLEDLKNVFPPEVAVFEPSEAEISHTQKATLVCLATGFYPDHVELSWWVNGKEVHSGVCTDPQPLKEQPALNDSRYCLSSRLRVSATFWQNPRNHFRCQVQFYGLSENDEWTQDRAKPVTQIVSAEAWGRADCGFTSESYQQGVLSATILYEILLGKATLYAVLVSALVLMAMVKRKDSRGRAKRSGSGATNFSLLKQAGDVEENPGPTSATMDWIWRILFLVGAATGAHSGPQVQLQESGGGLAQAGGSLRLSCAASGRTFSMGWFRQAPGKEREFVAAITYSGGSPYYASSVRGRFTISRDNAKNTVYLQMNSLKPEDTAVYYCAANPTYGSDWNAENWGQGTQVTVSSGSGGGGSGGGGSGGGGSFEAQTVTQSQPEMSVQEAETVTLSCTYDTSESDYYLFWYKQPPSRQMILVIRQEAYKQQNATENRFSVNFQKAAKSFSLKISDSQLGDAAMYFCAYRSAVNARLMFGDGTQLVVKPNTRIQNPDPAVYQLRDSKSSDKSVCLFTDFDSQTNVSQSKDSDVYITDKCVLDMRSMDFKSNSAVAWSNKSDFACANAFNNSIIPEDTFFPSPESSCDVKLVEKSFETDTNLNFQNLSVIGFRILLLKVAGFNLLMTLRLWSSRAKRSGSGVKQTLNFDLLKLAGDVESNPGPSRGHMTEYKPTVRLATRDDVPRAVRTLAAAFADYPATRHTVDPDRHIERVTELQELFLTRVGLDIGKVWVADDGAAVAVWTTPESVEAGAVFAEIGPRMAELSGSRLAAQQQMEGLLAPHRPKEPAWFLATVGVSPDHQGKGLGSAVVLPGVEAAERAGVPAFLETSAPRNLPFYERLGFTVTADVEVPEGPRTWCMTRKPGA
B2: 22202 (protein)
chain: MALPVTALLLPLALLLHAARPACAGHLEQPQISSTKTLSKTARLECVVSGITISATSVYWYRERPGEVIQFLVSISYDGTVRKESGIPSGKFEVDRIPETSTSTLTIHNVEKQDIATYYCALWEAQQELGKKIKVFGPGTKLIITDKQLDKQLDADVSPKPTIFLPSIAETKLQKAGTYLCLLEKFFPDVIKIHWQEKKSNTILGSQEGNTMKTNDTYMKFSWLTVPEKSLDKEHRCIVRHENNKNGVDQEIIFPPIKTDVITMDPKDNCSKDANDTLLLQLTNTSAYYMYLLLLLKSVVYFAIITCCLLRRTAFCCNGEKSRAKRSGSGATNFSLLKQAGDVEENPGPTSATMDWIWRILFLVGAATGAHSGPQVQLQESGGGLAQAGGSLRLSCAASGRTFSMGWFRQAPGKEREFVAAITYSGGSPYYASSVRGRFTISRDNAKNTVYLQMNSLKPEDTAVYYCAANPTYGSDWNAENWGQGTQVTVSSGSGGGGSGGGGSGGGGSFEAIELVPEHQTVPVSIGVPATLRCSMKGEAIGNYYINWYRKTQGNTMTFIYREKDIYGPGFKDNFQGDIDIAKNLAVLKILAPSERDEGSYYCACDTLGMGGEYTDKLIFGKGTRVTVEPRSQPHTKPSVFVMKNGTNVACLVKEFYPKDIRINLVSSKKITEFDPAIVISPSGKYNAVKLGKYEDSNSVTCSVQHDNKTVHSTDFEVKTDSTDHVKPKETENTKQPSKSCHKPKAIVHTEKVNMMSLTVLGLRMLFAKTVAVNFLLTAKLFFLRAKRSGSGVKQTLNFDLLKLAGDVESNPGPSRAHMTEYKPTVRLATRDDVPRAVRTLAAAFADYPATRHTVDPDRHIERVTELQELFLTRVGLDIGKVWVADDGAAVAVWTTPESVEAGAVFAEIGPRMAELSGSRLAAQQQMEGLLAPHRPKEPAWFLATVGVSPDHQGKGLGSAVVLPGVEAAERAGVPAFLETSAPRNLPFYERLGFTVTADVEVPEGPRTWCMTRKPGA
B3: 22117 (protein)
chain: MALPVTALLLPLALLLHAARPQLQLQESGPGLVKPSETLSLTCTVSGDSISSGDYYWGWIRQPPGKGLEWIGHIYYSGVTYYNPSLKSRVTISVDTSRNQFSLKLSSVTAADTAVYYCTREDSSNWRSRGQGTLVTVSSLEIQNPDPAVYQLRDSKSSDKSVCLFTDFDSQTNVSQSKDSDVYITDKCVLDMRSMDFKSNSAVAWSNKSDFACANAFNNSIIPEDTFFPSSDVPCDVKLVEKSFETDTNLNFQNLSVIGFRILLLKVAGFNLLMTLRLWSSRAKRSGSGVKQTLNFDLLKLAGDVESNPGPTSTMALPVTALLLPLALLLHAARPQLQLQESGPGLVKPSETLSLTCTVSGDSISSGDYYWGWIRQPPGKGLEWIGHIYYSGVTYYNPSLKSRVTISVDTSRNQFSLKLSSVTAADTAVYYCTREDSSNWRSRGQGTLVTVSSLESGGGGSFEQVQLQQPGAELVKPGASVKMSCKASGYAFSSYWINWMKQKPGQGLEWIGQIYPGDGDTNYNGKFKGRATLTADTSSSTAYMQLSSLTSEDSAVYFCARSITTVVGCAMDYWGQGTSVTVSSTREDLKNVFPPEVAVFEPSKAEIAHTQKATLVCLATGFYPDHVELSWWVNGKEVHSGVCTDPQPLKEQPALNDSRYCLSSRLRVSATFWQNPRNHFRCQVQFYGLSENDEWTQDRAKPVTQIVSAEAWGRADCGITSASYHQGVLSATILYEILLGKATLYAVLVSALVLMAMVKRKDSRGRAKRSGSGATNFSLLKQAGDVEENPGPSRGHMTEYKPTVRLATRDDVPRAVRTLAAAFADYPATRHTVDPDRHIERVTELQELFLTRVGLDIGKVWVADDGAAVAVWTTPESVEAGAVFAEIGPRMAELSGSRLAAQQQMEGLLAPHRPKEPAWFLATVGVSPDHQGKGLGSAVVLPGVEAAERAGVPAFLETSAPRNLPFYERLGFTVTADVEVPEGPRTWCMTRKPGA
B4: 22207 (protein)
chain: MALPVTALLLPLALLLHAARPDIQMTQSPSSLSASVGDRVTITCKASDHINNWLAWYQQKPGQAPKLLIYGATTLETGVPSRFSGSGSGTDYTLTISSLQPEDFATYYCQQSWNTPWTFGQGTKLEIKRLEGQPKANPTVTLFPPSSEELQANKATLVCLISDFYPGAVTVAWKADGSPVKAGVETTKPSKQSNNKYAASSYLSLTPEQWKSHRSYSCQVTHEGSTVEKTVAPTECSPIKTDVITMDPKDNCSKDANDTLLLQLTNTSAYYMYLLLLLKSVVYFAIITCCLLRRTAFCCNGEKSRAKRSGSGATNFSLLKQAGDVEENPGPTSMDWIWRILFLVGAATGAHSFEQVQLQQPGAELVKPGASVKMSCKASGYAFSSYWINWMKQKPGQGLEWIGQIYPGDGDTNYNGKFKGRATLTADTSSSTAYMQLSSLTSEDSAVYFCARSITTVVGCAMDYWGQGTSVTVSSTRSQPHTKPSVFVMKNGTNVACLVKEFYPKDIRINLVSSKKITEFDPAIVISPSGKYNAVKLGKYEDSNSVTCSVQHDNKTVHSTDFEVKTDSTDHVKPKETENTKQPSKSCHKPKAIVHTEKVNMMSLTVLGLRMLFAKTVAVNFLLTAKLFFLRAKRSGSGVKQTLNFDLLKLAGDVESNPGPSRGHMTEYKPTVRLATRDDVPRAVRTLAAAFADYPATRHTVDPDRHIERVTELQELFLTRVGLDIGKVWVADDGAAVAVWTTPESVEAGAVFAEIGPRMAELSGSRLAAQQQMEGLLAPHRPKEPAWFLATVGVSPDHQGKGLGSAVVLPGVEAAERAGVPAFLETSAPRNLPFYERLGFTVTADVEVPEGPRTWCMTRKPGA
B5: 22103 (protein)
chain: MALPVTALLLPLALLLHAARPDIQMTQSPSSLSASVGDRVTITCKASDHINNWLAWYQQKPGQAPKLLIYGATTLETGVPSRFSGSGSGTDYTLTISSLQPEDFATYYCQQSWNTPWTFGQGTKLEIKRLEGQPKANPTVTLFPPSSEELQANKATLVCLISDFYPGAVTVAWKADGSPVKAGVETTKPSKQSNNKYAASSYLSLTPEQWKSHRSYSCQVTHEGSTVEKTVAPTECSPIKTDVITMDPKDNCSKDANDTLLLQLTNTSAYYMYLLLLLKSVVYFAIITCCLLRRTAFCCNGEKSRAKRSGSGATNFSLLKQAGDVEENPGPTSMDWIWRILFLVGAATGAHSFEQVQLQQPGAELVKPGASVKMSCKASGYAFSSYWINWMKQKPGQGLEWIGQIYPGDGDTNYNGKFKGRATLTADTSSSTAYMQLSSLTSEDSAVYFCARSITTVVGCAMDYWGQGTSVTVSSTRASTKGPSVFPLAPSSKSTSGGTAALGCLVKDYFPEPVTVSWNSGALTSGVHTFPAVLQSSGLYSLSSVVTVPSSSLGTQTYICNVNHKPSNTKVDKRVEPKSCEVKTDSTDHVKPKETENTKQPSKSCHKPKAIVHTEKVNMMSLTVLGLRMLFAKTVAVNFLLTAKLFFLRAKRSGSGVKQTLNFDLLKLAGDVESNPGPSRGHMTEYKPTVRLATRDDVPRAVRTLAAAFADYPATRHTVDPDRHIERVTELQELFLTRVGLDIGKVWVADDGAAVAVWTTPESVEAGAVFAEIGPRMAELSGSRLAAQQQMEGLLAPHRPKEPAWFLATVGVSPDHQGKGLGSAVVLPGVEAAERAGVPAFLETSAPRNLPFYERLGFTVTADVEVPEGPRTWCMTRKPGA
B6: 22205 (protein)
chain: MTIRLLCYMGFYFLGAGLMEADIYQTPRYLVIGTGKKITLECSQTMGHDKMYWYQQDPGMELHLIHYSYGVNSTEKGDLSSESTVSRIRTEHFPLTLESARPSHTSQYLCASSEARGLAEFTDTQYFGPGTRLTVLEDLKNVFPPEVAVFEPSEAEISHTQKATLVCLATGFYPDHVELSWWVNGKEVHSGVCTDPQPLKEQPALNDSRYCLSSRLRVSATFWQNPRNHFRCQVQFYGLSENDEWTQDRAKPVTQIVSAEAWGRADCGFTSESYQQGVLSATILYEILLGKATLYAVLVSALVLMAMVKRKDSRGRAKRSGSGATNFSLLKQAGDVEENPGPTSATMDWIWRILFLVGAATGAHSGPQVQLQESGGGLAQAGGSLRLSCAASGRTFSMGWFRQAPGKEREFVAAITYSGGSPYYASSVRGRFTISRDNAKNTVYLQMNSLKPEDTAVYYCAANPTYGSDWNAENWGQGTQVTVSSGSGGGGSGGGGSGGGGSFEQVQLQQPGAELVKPGASVKMSCKASGYAFSSYWINWMKQKPGQGLEWIGQIYPGDGDTNYNGKFKGRATLTADTSSSTAYMQLSSLTSEDSAVYFCARSITTVVGCAMDYWGQGTSVTVSSTRIQNPDPAVYQLRDSKSSDKSVCLFTDFDSQTNVSQSKDSDVYITDKCVLDMRSMDFKSNSAVAWSNKSDFACANAFNNSIIPEDTFFPSPESSCDVKLVEKSFETDTNLNFQNLSVIGFRILLLKVAGFNLLMTLRLWSSRAKRSGSGVKQTLNFDLLKLAGDVESNPGPSRGHMTEYKPTVRLATRDDVPRAVRTLAAAFADYPATRHTVDPDRHIERVTELQELFLTRVGLDIGKVWVADDGAAVAVWTTPESVEAGAVFAEIGPRMAELSGSRLAAQQQMEGLLAPHRPKEPAWFLATVGVSPDHQGKGLGSAVVLPGVEAAERAGVPAFLETSAPRNLPFYERLGFTVTADVEVPEGPRTWCMTRKPGA

In the experiment the test system is RAJI cells. Kind of experiment: JNG assay, co-culture with RAJI cells. Conditions: JNG cells expressing construct, co-culture with Raji. The experiment is classed as cell-based. In a few lines: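 Read-out is NFAT-driven GFP measured by flow cytometry after ~4–18 h co-culture of SAR-expressing JNG cells with target cells (E:T about 1:2). SARs were introduced by lentiviral spinfection and selected with puromycin or blasticidin when possible; scores (+/- to 5+ ≈ 5–50% GFP+) are relative to parental JNG cells.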
On to B1, for which the “NFAT-GFP ASSAY: Raji” value was “+ (refer to approximately 5%, 10%, 20%, 30%, 40% and 50% GFP positive cells)”.
In the case of B2 it was “Raji (3+) (refer to approximately 5%, 10%, 20%, 30%, 40% and 50% GFP positive cells)”; in that of B3, 3+ (refer to approximately 5%, 10%, 20%, 30%, 40% and 50% GFP positive cells); in that of B4, “Raji (5+) (refer to approximately 5%, 10%, 20%, 30%, 40% and 50% GFP positive cells)”.
The result for B5 reads 4+ (refer to approximately 5%, 10%, 20%, 30%, 40% and 50% GFP positive cells); that for B6, “Raji (5+) (refer to approximately 5%, 10%, 20%, 30%, 40% and 50% GFP positive cells)”.
